Source: patent US20170037092A1

Target: HLA-A*02:01 (human)
Test: UV-ligand exchange ELISA

Q: Which peptide exchange yield does the source give for SLTETIEGV (modifications not checked) […] here?
A: 20 to 50%
